{"source": "the nanobody polyreactivity screen of Harvey et al. (2022)"}
{"experiment": "yeast display, Sf9 membrane polyspecificity reagent, FACS + sequencing; frameworks hold sequencing errors", "how_it_was_run": "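Galactose-induced (36–48 hours) yeast carrying a synthetic nanobody display library were exposed to 10% biotinylated, detergent-solubilized Sf9 membrane reagent at 4 °C for 1 hour. FACS followed streptavidin microbead enrichment, using low and high (top ~1%) gates for expression (anti-HA) and reagent binding (streptavidin). Colony PCR, MiSeq 2 × 250 sequencing and CDR-length filtering followed. Labels for polyreactivity reflect the gate of origin.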"}
{"sequence": "QVQLVESGGGLVQAGGNLRLICDASGSIFLYNTMGWYRHAPGQERELVAAITYSGGSTYYADSVKGRFTISRDNAKNTVYLQMNSLNPEDTAVYYCNARHYSAFYSWGQGTQVTVSS", "polyreactivity (PSR sort gate)": "high polyreactivity"}
{"sequence": "QDQLVESGGGLVQAGGSLRLSCAASGFIFRWYAMGWYRQAPGKERELVAAISRSGDSTYYADSVKGRFTISRDNAKNTVYLQMNSLIPEDTAVYYCAADDRYYTYGYDYWGQGTQVTVSS", "polyreactivity (PSR sort gate)": "low polyreactivity"}
{"sequence": "QVQLVESGGCLVQAGGSLRLSCAASGRTFSSNALGWYRHAPGKERELVAAITTTGGRTYYADSVKGRFTISRDNAKNTVYLQMNSLKPEDTAVYYCAARRRYGYDFWGHGTQVTVSS", "polyreactivity (PSR sort gate)": "high polyreactivity"}
{"sequence": "QVQLVESGGVLVQAGGSLRLSCAASGSLFILYALGWYRQEPGKEREFVASISRSGSTYYADSVKGRFTISRDNAKNSVYLQMNSLKPEDTAVYYCAADYRQFYRYVDYEYWGQGTQVTVSS", "polyreactivity (PSR sort gate)": "low polyreactivity"}
{"sequence": "QVQLVESGGGLVQAGGSLRLSCAASGSTFWIYAMGWYRQAPGKERELFAAITLRSGSTYYADSVKGRFTISRDNSKNTVYLQMNSLKPEDTAVYYCATDSWGFDSPNYNYWGQCTQVTVSS", "polyreactivity (PSR sort gate)": "low polyreactivity"}
{"sequence": "QVQLVESGGGLVQAGGSLRLSFAPSGRTIDPNAMGWYRQAPGKERELVAAITRTGVRKYYADSVKGRFTISRDNAKNTVYLQMNSLKPEDTAVYYCAASYSGRQDRYPHYDYWGQGTQVTVSS", "polyreactivity (PSR sort gate)": "low polyreactivity"}
{"sequence": "QVQLVESGAPLVQAGGSLRLSCAASGSTFERYVMGWYRQRLGNKGSWLPVLNHNGGSTYYADSVKGRFTISRDNAKNTVYLQMNSLKPEDTAVYYCAASFRTVLDYGYWGQGTQVTVSS", "polyreactivity (PSR sort gate)": "low polyreactivity"}
{"sequence": "QVQLVESGGGLVQAGGSLRLSCAASGSTLNRNAMGWYRQAPGKERELVAAIRVSGGSTYYADSVKGRFTISRDNAKNTVYLQMNSLKPEDTAVYYCATRYVRARWYGYWGQGTQVTVSS", "polyreactivity (PSR sort gate)": "high polyreactivity"}
{"sequence": "QVQLVESGGGLVQAGGSLRLSCAASGSIFTTYAMGWYRQAPGKERELVAVISRRGGSTYYADSVKGRFTISRDNAKNTVYLQMNSLKPEDTAVYYCNAAYVWYRIFVRRDYWGQGTQVTVSS", "polyreactivity (PSR sort gate)": "high polyreactivity"}
{"sequence": "QGQLEESGGGLVQAGGSLRLSCAASGFTFYDNAMGWYRQAPGKERELVAAISWSGGSTYADSVKGRFTISRDNAKNTVYLLMNSLKPEDTAVYYCNADAWLASGYRYDYWGQGTQVTVSA", "polyreactivity (PSR sort gate)": "low polyreactivity"}
{"sequence": "QVQLVESGGGLVQAGGSLRLSCAASGRIFILYGMGWYRQAPGKERELVAAIRWSGASTYYADSVKGRFTISRDNAKNTVYLQMNSLKPEDTAVYYCAATVGFTPSFWYSSKYDYWGQGTQVTVSS", "polyreactivity (PSR sort gate)": "low polyreactivity"}
{"sequence": "QVQLVESGGGLVQAGGSLRLSCAASGSTYKFYAMGWYRQATGKERELVAAISGSSGSTYYADSVKGRFTISRDNAKNTVYLQMNSLKPEDTAVYYWNTQYSRYYTRYSAYDYWGQGTQVTVSS", "polyreactivity (PSR sort gate)": "low polyreactivity"}
{"sequence": "QVQLVESGGGLVQAGGSLRLSCAASGRTFYYYTMGWYRQAPGKERELVAAITWNGGSTYYADSVKGRFTISRDNAKNTVYLQMNSLKPEDTAVYYCNARWTWRYDYWGQGTQVTVSS", "polyreactivity (PSR sort gate)": "high polyreactivity"}
{"sequence": "QVQLVESGGGLVQAGGSLRLSCAASGSIVEYYAMGWYRQAPGKERELVAAISTGGSTYYADSVKGRFTISRDNAKNTVYLQMNSLKPEDTAVYYCAAEDYHPGADTVGTGYDYWGQGTQVTVSS", "polyreactivity (PSR sort gate)": "low polyreactivity"}
{"sequence": "QVQLVESGGGLVQAGGSLRLSCAASGFTFWYYAMGWYRQAPGKERELVAAITRGGNTNYADSVKGRFTISRDNAKNTVYLQMNSLKPEDTAVYYCAVRFSAPGYYYWGQGTQVTVSS", "polyreactivity (PSR sort gate)": "high polyreactivity"}
{"sequence": "QVQLVESGGGLVQAGGSLRLSCAASGRIFYGYTMGWYRQAPGKERELVARISSSGSTYYADSVKGRFTISRDNAKNTVYLQMNSLKPEDTAVYYCAAVRRRYGYDYWGQGTQVTVSS", "polyreactivity (PSR sort gate)": "high polyreactivity"}
{"sequence": "QVQRVESEGGLVQAGGSLRLSCAASGRTFENYAMGWYRQAPGKERELVATINGRSGNTYYADSVKGRFTISRDNAKNTVYLQLNSLKPDDTAVYYCNAYYEGDYTVGYDYWGQGTQVTVSS", "polyreactivity (PSR sort gate)": "high polyreactivity"}
{"sequence": "QVQLVESGGGLVQAGGSLRLSCAASGSIFVYYAMGWYRQAPGKERELVATITNDGSTYADSVKGRFTISRDNAKNTVYLQMNSLKPEDTAVYYCAAKIPSDRTIYDYWGQGTQVTVSS", "polyreactivity (PSR sort gate)": "low polyreactivity"}
{"sequence": "QVQLVESGGLLVQAGGSLRLTCAASGSTFGRNAMGWYRQATGKERQLVAAITASGGTTYYADSVKGRFTISRDNAKNTVYLHMNSLKPEDTAVYDCARAGHFSFKYDYWGQGTQVTVSS", "polyreactivity (PSR sort gate)": "low polyreactivity"}
{"sequence": "QVQLVESGGGLVQAGGSLRLSCAASGGIFDDYAMGWYRQAPGKERELVAAISSSGGSTYYADSVKGRFTISRDNAKNTVYLQMNSLKPEDTAVYYCNADRRRRFGYWGQGTQVTVSS", "polyreactivity (PSR sort gate)": "high polyreactivity"}
{"sequence": "QVQLEESGGGLVQAGGSLRLSCAASGSTFHLYAMGLYRQAPGKEREFVAAIRGRGGNTYADSVKGRFTISRDNAKNTVYLQMNSLKPEDTAVYYCAAPLLRDLRSQYYYIYWGQCTQVTVSS", "polyreactivity (PSR sort gate)": "low polyreactivity"}
{"sequence": "QVQLVESGGGLVQAGGSLRLSCAASGFTFYRNAMGWYRQAPGKERELVAAITLSGTSTYYADSVMGRFTISRDNAKNTVYLQMISLIPEDTAVYYWNTVGYRGPSNSRFYYWGQGTQVTLSS", "polyreactivity (PSR sort gate)": "high polyreactivity"}
{"sequence": "QVQLVESGGGLVQAGGSLRLSCAASGSIFSYYAMGWYRPAPGKERELVAAISWSGGSTYYADSVKGRFTISRDNAKNTVSLQMNSLIPADTAVYYCAAGVTYEKQTKYYYWGQGTQVTVSS", "polyreactivity (PSR sort gate)": "high polyreactivity"}
{"sequence": "QFQLVESGGGLVQAGGSLRLSCAASGRIFVGYAMGSYRQAPGKEMELVATISSRGGSTYYADSVKGRFTISRDNAKNTLYLQMNSLKPEDTAVYYCAAVARNNRNSRQRIPYDFWGQGTQVTVSS", "polyreactivity (PSR sort gate)": "high polyreactivity"}
{"sequence": "QVQLQESGGGLEQAGGSLRKSCAANGNIFDADIVGRYRQAPGKKPELVDSITDGGITNYADSVKGRFTISRDNAKYTVYLQMNIQNPEDTAVYYCASIAYPDIPTFFDYYSYFFYWGQGTQVTVSS", "polyreactivity (PSR sort gate)": "high polyreactivity"}
{"sequence": "QVQLVESGGGLVQAGGSLRLSCADSGFTFYYSAMGWYRQAPGKEREVVAAISWGGGTTYYADSVKGRFTISRDNAKNTVYLQMNSLKPEDTAVFYCNAASSLPGYDYWGQGTQVTVSS", "polyreactivity (PSR sort gate)": "high polyreactivity"}
{"sequence": "QVQLQDSGGGLVQAGGSLRLSCAASGTISYRYRMGWYRQAPRKELELVAGISFGSITYYADSVKGRFTISRDNAKNTVYLQMNSLKPEDIAVYYCAVYQKSYRFFPYWGQGTQVTVSS", "polyreactivity (PSR sort gate)": "high polyreactivity"}
{"sequence": "QVQLVESGGGLVQAGGSLRLSCAASGSILGTYAMGWYRQAPGKERDLVAAISSSGRTSYADSVKGRFTISRDNAKNTVYLQMNSLKPEDTAVYFCNKVTSYYVFYTPYYSWGQGTQVTVSS", "polyreactivity (PSR sort gate)": "low polyreactivity"}
{"sequence": "QVQLVESGGGLVQAGGSLRLSCAASGSTFDGNAMGWYRQAPGTERELVAAITSGGSTNYADSVKGRFTISRDNAKNTVYLQMNSLKPEDTAVYYCAADTVSFSILYDYWGQGTQVTVSS", "polyreactivity (PSR sort gate)": "low polyreactivity"}
{"sequence": "QVQLVESGGGLVQAGGTLRLSCAASGRIFWAYAMGRYRQAPGKERELVAAITRSGGYTRYADSVKGRFTISRDNAKNTVYLLMNSLKPEDTAVYYCNAYAPRQLYGYDYWGQGSQVTVSS", "polyreactivity (PSR sort gate)": "high polyreactivity"}
{"sequence": "QVQLVESGGGLVQAGGSLRLSCAASGRTLRTYAMGWSRQAPGKERELVAAITSSGGRTYYADSVKGRFTISRDNAKNTVYLQMNSLKPEDTAVYYCAAARYYYGGDYWGQGTQVTVSS", "polyreactivity (PSR sort gate)": "high polyreactivity"}
{"sequence": "QVQLVESGGGLVQAGGSLRLSCAASGYTFVIYAMGWYRQAPGKERELVAAITTIGGRTYYADSVKGRFTISRDNAKNTVYLQMNSLKPEDTAVYYCAADIRSNRLYDGGYWGQGTHVTVSS", "polyreactivity (PSR sort gate)": "low polyreactivity"}
{"sequence": "QVQLVESGGGLVQAGGSLRLSCAASGSTFDYYVMGWYRQAPGKERELVASISSGGSTYYADSVKGRFTISRDNAKNTVYLQMNSLKPEDTAVYYCAARYYGRVGGYSIGYNYWGQGTQVTVSS", "polyreactivity (PSR sort gate)": "high polyreactivity"}
{"sequence": "QVQLVESGGGLVQAGGSLRLSCASSGFIFKRYAMGWYRQAPGKERELVAAITSGGSTHYADSVKGRFTISRDNAKNTVYLQMNSLKPEDTAVYYCATRRYKWGVRYDYWGQGTQVTVSS", "polyreactivity (PSR sort gate)": "high polyreactivity"}
{"sequence": "QVQLVESGGGLVQAGGSLRLSCAASGSTFYAYTMGWYRQAPGKERELVADISRSGGSTYYADSVKGRFTISRDNAKNTVYLQMNSLKPEDTAVYYCAAASSYYRGHYDYWVQGTQVTVSS", "polyreactivity (PSR sort gate)": "high polyreactivity"}
{"sequence": "QVQLVESGGGLVQAGVSLRLSCAASGNAMGWYRQAPGKERELVAAITYGGTTTYYADSVKGRFTISRDNAKNTVYLQMNSLKPEDTAVYYCAADFVFVATPLRYDYWGQGTQVTVSS", "polyreactivity (PSR sort gate)": "low polyreactivity"}
{"sequence": "QVQLVESGGGLVQAGGSLRLSCAASGSISDSNAMGSYRQAPGKERELVAAIDDSGGSTYYADSVKGRFTISRDNAKNTVYLQMNSLKPEDTAVYYCAKTKTQYLTSEIRFVYWGQGTQVTVSS", "polyreactivity (PSR sort gate)": "low polyreactivity"}
{"sequence": "QVQLVESGGGLVQAGGSLRLSCAASGSTFRYNLMGWYRQAPGKERELVAAISAVGSTYYADSVKGRFTISRDNAKNTVYLQMNSLKAEDTAVYYCAASYDWRAYRRDFYYWLTGDYWGQGTQVTVSS", "polyreactivity (PSR sort gate)": "low polyreactivity"}
{"sequence": "QVQLGESGGGLVQAGGSLRLSCAASGYIFRIYAMGGYRQAPGKERELVAAISRSGGSTSYADSVKGRFTISRDTAKNTVYLQMNSLKPEDTAVYYCATEIRPSRIAQYDYWGQGTQVTVSS", "polyreactivity (PSR sort gate)": "high polyreactivity"}
{"sequence": "QVQLVESGGGLVQAGGSLRLSCAASGSIFTYYVMGWYRQAPGKERELVAAITISGGSTYYADSVKGRFTISRDNAKNTVYLQMNRLNPEDTAVYYCAAEEVYYEADGFLYSYDYWGKGTQVTVSS", "polyreactivity (PSR sort gate)": "high polyreactivity"}
{"sequence": "QVQLVESGGGLFQAGGSLRLSCAASGRTFGYNVMGWYRQATGKERELVAGITSSGSTNYADSVKGRFTISRDNVKNTFYLQMNSLKPEETAVYYCAAGDRRWGFQVGYWGQGTQVTVSS", "polyreactivity (PSR sort gate)": "high polyreactivity"}
{"sequence": "QVQLVESGGGLVQAGGSLRLSCAASGSIFLINAMGWYRQAPGTERELVAAISRRGGSTYYADSVKGRFTISRDNAKNTVYLQMNSLKPEDTAVYYCAATGHGRVYFGGGHWGQGTQVTVSS", "polyreactivity (PSR sort gate)": "high polyreactivity"}
{"sequence": "QVQLVESGGGLVQAGGSLRISSAASGSITPYYTMGWYRQAPGKERELVATITSGGNTYYADSVKGRFTISRDNAQNTVYLQLNSVKPEDTAVYYCAAEGVWGIFDYWGKGTQVTVSS", "polyreactivity (PSR sort gate)": "low polyreactivity"}
